# Target: E-cadherin (canine (endogenous in MDCK))
# Assay: co-IP; 1 mg MDCK lysate (RIPA buffer) from Mock or DDR1-knockdown (Sh-DDR1) cells, incubated overnight at 4 °C with 1 μg anti-E-cadherin antibody, protein G-sepharose beads; immunoblot with anti-clathrin heavy chain; control antibody as negative control
substance,measurement,value
clathrin heavy chain (natural protein),"fold increase of the clathrin/E-cadherin co-IP ratio, Sh-DDR1 cells against Mock cells",3.5 fold

# From article PMC5099905
